Assay: yeast display, Sf9 membrane polyspecificity reagent, FACS + sequencing; frameworks hold sequencing errors
How it was run: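 A synthetic nanobody library was expressed on Saccharomyces cerevisiae BJ5465 by galactose induction for 36–48 hours. The library was stained for 1 hour at 4 °C with 10% biotinylated, detergent-solubilized Sf9 membrane reagent and enriched with streptavidin microbeads before FACS. Low and high (top ~1%) gates were set on anti-HA fluorescence for expression and streptavidin fluorescence for reagent binding, and each polyreactivity label reflects the gate of origin.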

| Sequence | polyreactivity (PSR sort gate) |
| --- | --- |
| EEELVESGGGIVQAGGSLRLSCAASGFIFGYNAMGWYRQAPGKERELVAAISSGDDTNYADSVKGRFTISRDNAKNTVYLQMNSLKPEDTAVYYCAAEVWTAFTLGSYWSVVDYDYWGQGTQVSVSS | low polyreactivity |
| EEELVESGGGLVQAGGSLRLSCAASGSTFLVYAMGWYRQAPGKERELVAVITSGGRTNYADSVKGRFTISRDNAKNTVYLQMNSLKPEDTAVYYCAVDGRSVPAWWPRFDYWGQGTQVTVSS | low polyreactivity |
| EVQLVESGGGLDQAGGSLRLICAASARTFIWNAMGWYRQEPGKERDLVAAITRNGDSTYYADSVKGRFTISRDNAKNTVYLQMNRLKPEDTAVYYCAAYSRVFVYRTVGNYGWMNYWGQGTQVTVSS | high polyreactivity |
| EVQLVESGGGLVQAGGSLRLSCAASGFIFGYNAMGWYRQAPGKERDLVAAISWSGGSTYYADSVKGRYTISRDNAKNTVYLQMNSLKPEDTAVYYCNRGYTAQVFTEFDYWGQGTLVTVSS | low polyreactivity |
| EVQLVESGGGLVQPGGSLRLSCAASGYIYSRYRMGWYRQAPGKGREFVAAISGGSSTNYADSVKGRFTISRDNSKNTVYLQMNSLRAEDTAVYYCAAYQIDSDPRVYWGQGTQVTVSS | low polyreactivity |
| EVQLVESGGGLVQPGGSLRLSCAASGYIYSRYRMGWYRQAPGKGREFVAAISGGSSTNYADSVKGRFTISRDNSKYTVYLQMNSLRADDTALYYCAAYKIDSDPRVYWGQGTQVTVSS | low polyreactivity |
| HAQLQESGGCLVQAGGSLRPSCAASGSIFRVSGMGWYRRAPGKERELVASIGFGSITYYADRVKGRFTISRDNAINTVYLQMNSLKPEDTAVYYCAVQVQDESWLDYWGQGTQVTVSC | low polyreactivity |
| HDQLVESGGGLVQAGGSLRLSCAASGSTFTINVMGWYRQAPGKERELVAAINGGGRTNYADSVKGRFTISRDNAKNTVYVQMNILKPEDTAVYYCAADGLSNVRQMDYWGQGTQVTVSS | low polyreactivity |
| HFQLVESGGGLVQAGGSLRLSCAASVFIILINVMGWSRQAPGKERELVAVITGGGTTNYADSVKGRFTISRDNANNTVYLQMNSLKPVDTAGYYCAVDAGAGDNDYWGQGTQVTVSS | low polyreactivity |
| HVHLVESGGGLVQAGGSLRLSCAASGRTFSRYAMGWYRQAPGKERELVAAITSGGSTNYADSVKGRFTISRDNAKNTVYLQKNSLKPEDTAVYYCAKRYFRSSRDGLGTTHPYDYWGQGTQVTVSS | high polyreactivity |
| HVHLVESGGGLVQAGGSLRLSCAASGRTFSTYAMGRYRQAPGKERELVATIRVSGSSTYYADSVKGRFTISRDNAKNTVYLQMNSLKQEDTEVYYCANRGLSRYYDYYYWGQGTQVTVSS | high polyreactivity |
| HVHLVESGGGLVQAGGSLRLSCASSGPTFGWNVMGWYRQAPGKERELVAAISGSGGSTYYADSVKGRFTISRDNAKNTVYSQMNSLKPEDTAVYYCAALYGPGREYDYWGQGTQVSVSS | low polyreactivity |
| HVHLVESGGGLVQAGGSLSLICAASGFIFRYYAMGWYRQAPGTEREVVAAITRGGSTYYADSVKGRFTISRDNAKNTVYLQMNSLKPVATAVYYCAARLYTQYYYWGQGTQVTVSS | high polyreactivity |
| HVLLVESGGGLVQAGGSLRLSFAATAFTFTYYTMGSYRQAPGKETELVAAITSSGGSTYYADSVMGRFTISRDNANNTVYLQMNSLKPEDTAVYYCAASRYSTRFGARVYWGQVTQVTVSS | high polyreactivity |
| HVQHVESGGGLVHAGGSLRLRCAASGSIFVYYAMGWYRQAPGKERELVAAISGGGGRKYYADSVKGRFTISRDNANNTVYLQMNSLKPDDTAVYYCAARRATYPGGFYSWGQGSQVTVSS | high polyreactivity |
| HVQIVESGGGLVQAGGSLRLSCAASGRIFVPYVMGWYRQAPGKERELVASISDSDTSTYYADSVKGRFTISRDNAKNTVYLQINSLKPEDTAVYYCNVDNWGQGTQVTVSS | low polyreactivity |
| HVQLEESGGGLDQAGGSLRLSCAASGITFVRNAMGWYRQAPGKERELVAVITSGGGTYYADSVKGRFTISRDNAKNTVYLQMNSLKPEDTAVYYWAGDIHVNGSGYWGKGTQVTVSS | low polyreactivity |
